The values that follow come from US20160287682.

In this data set the test system is Notch1, overexpressed in 293T cells.

Take “Adamts1, V5 tagged, overexpressed in 293T cells”: the “S2 cleavage of Notch1” value is “Adamts1 blocks S2 cleavage of Notch1”.
